Source: article PMC6203815 (Nature Communications, 2018)

B1: HC2-LC2 (antibody, V domains shown)
VH: EVQLVESGGGLVQPGGSLRLSCAASGFTFNNYWMSWVRQAPGKGLEWVASISNIGGTIYYPDSVKGRFTISRDSAKNSLYLQMNSLRAEDTAVYYCTRDLRMSDYFDYWGQGTLVTVSS
VL: QFVLTQPHSVSESPGKTVTISCKRSTGNIGSNYVSWYQQRPGSSPTTVIYRDDQRPSGVPDRFSGSIDRSSNSASLTISGLKTEDEADYYCHSYSTGMYIFGGGTKLTVL
B2: HC2-LC3 (antibody, V domains shown)
VH: EVQLVESGGGLVQPGGSLRLSCAASGFTFNNYWMSWVRQAPGKGLEWVASISNIGGTIYYPDSVKGRFTISRDSAKNSLYLQMNSLRAEDTAVYYCTRDLRMSDYFDYWGQGTLVTVSS
VL: QFMLTQPHSVSESPGKTVTISCTRSTGNIGSNYVSWYQQRPGSAPTTVIYRDDQRPSGVPDRFSGSIDRSSNSASLTISRLKTEDEADYYCHSYSTGMYIFGGGTKLTVL
B3: HC1-LC1 (antibody, V domains shown)
VH: EVQLVESGGGLVQPGGSLRLSCAASGFTFNNYWMSWVRQAPGKGLEWVASISNIGGTIYYPDSVKGRFTISRDNAKNSLYLQMNSLRAEDTAVYYCTRDLRMSDYFDYWGQGTLVTVSS
VL: NFMLTQPHSVSESPGKTVTISCTRSTGNIGSNYVSWYQQRPGSSPTTVIYRDDQRPSGVPDRFSGSIDRSSNSASLTISGLKTEDEADYYCHSYSTGMYIFGGGTKLTVL
B4: HC1-LC2 (antibody, V domains shown)
VH: EVQLVESGGGLVQPGGSLRLSCAASGFTFNNYWMSWVRQAPGKGLEWVASISNIGGTIYYPDSVKGRFTISRDNAKNSLYLQMNSLRAEDTAVYYCTRDLRMSDYFDYWGQGTLVTVSS
VL: QFVLTQPHSVSESPGKTVTISCKRSTGNIGSNYVSWYQQRPGSSPTTVIYRDDQRPSGVPDRFSGSIDRSSNSASLTISGLKTEDEADYYCHSYSTGMYIFGGGTKLTVL
B5: HC1-LC3 (antibody, V domains shown)
VH: EVQLVESGGGLVQPGGSLRLSCAASGFTFNNYWMSWVRQAPGKGLEWVASISNIGGTIYYPDSVKGRFTISRDNAKNSLYLQMNSLRAEDTAVYYCTRDLRMSDYFDYWGQGTLVTVSS
VL: QFMLTQPHSVSESPGKTVTISCTRSTGNIGSNYVSWYQQRPGSAPTTVIYRDDQRPSGVPDRFSGSIDRSSNSASLTISRLKTEDEADYYCHSYSTGMYIFGGGTKLTVL

Molecular target: Pfs48/45 6C domain (NF54) (Plasmodium falciparum NF54, UniProt V5NSK3)

Does B1 bind?
Result: binds

Does B2 bind?
Result: binds

Does B3 bind?
Result: binds

Does B4 bind?
Result: binds

Does B5 bind?
Result: binds
